According to article PMC9712689 (Communications Biology, 2022):

T1: RlpA-Δ32·MltF2 complex (MST) (P. aeruginosa PAO1, UniProt Q9X6V6;Q9HZY1, amine reactive RED-NHS dye)
T1 sequence 1: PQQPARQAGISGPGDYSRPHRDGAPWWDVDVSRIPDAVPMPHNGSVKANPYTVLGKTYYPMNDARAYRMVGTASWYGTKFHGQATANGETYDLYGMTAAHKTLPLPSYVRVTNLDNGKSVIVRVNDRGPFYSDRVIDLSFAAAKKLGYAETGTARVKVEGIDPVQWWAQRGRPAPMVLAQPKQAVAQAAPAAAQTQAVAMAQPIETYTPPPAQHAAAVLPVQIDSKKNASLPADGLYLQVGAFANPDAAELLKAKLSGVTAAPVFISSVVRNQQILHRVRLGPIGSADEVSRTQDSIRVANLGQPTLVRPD
T1 sequence 2: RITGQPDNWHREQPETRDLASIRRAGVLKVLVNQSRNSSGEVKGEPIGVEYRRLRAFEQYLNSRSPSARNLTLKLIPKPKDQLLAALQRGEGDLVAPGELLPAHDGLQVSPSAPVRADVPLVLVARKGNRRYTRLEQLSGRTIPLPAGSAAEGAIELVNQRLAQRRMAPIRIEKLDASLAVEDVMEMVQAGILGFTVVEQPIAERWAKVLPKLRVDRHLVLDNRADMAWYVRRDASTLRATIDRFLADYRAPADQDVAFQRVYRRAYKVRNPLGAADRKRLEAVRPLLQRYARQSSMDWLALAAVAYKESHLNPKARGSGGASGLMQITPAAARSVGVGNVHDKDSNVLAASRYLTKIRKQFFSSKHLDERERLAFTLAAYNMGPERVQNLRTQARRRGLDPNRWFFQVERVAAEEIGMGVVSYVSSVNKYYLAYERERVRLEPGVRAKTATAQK

T2: RlpA-Δ32 (P. aeruginosa PAO1, UniProt Q9X6V6 32-342)
T2 construct: source: E. coli BL21-star (DE3), purified (Ni-NTA)
T2 sequence: T1 sequence 1

T3: RlpA-Δ32, fluorescently labeled (P. aeruginosa PAO1, UniProt Q9X6V6 32-342, amine reactive RED-NHS dye)
T3 construct: source: E. coli BL21-star (DE3), purified (Ni-NTA), labelled with RED-NHS dye
T3 sequence: T1 sequence 1

B1: TypA (natural protein, P. aeruginosa PAO1, UniProt Q9HU67 1-605, looked up)
chain: MIENLRNIAIIAHVDHGKTTLVDKLLKLSGTLDRKEAESERVMDSNDQEKERGITILAKNTAIKWNGYNINIVDTPGHADFGGEVERVMSMVDSVLLVVDAQDGPMPQTRFVTQKAFKAGLRPIVVVNKIDRPGARPDWVIDQIFDLFDNLGATDEQLDFPIVYASALNGIAGLDHEKMDDNMDALFQAIIDHVPAPVVDTEGPFQMQISQLDYNSFLGVIGIGRITRGKVKSNTPVVAISDDGSKRNGRILKIMGHHGLQRVEVAEAEAGDIVCVSGMEELFISDTLCDPQNVEALPPLTVDQPTVSMTFQVNDSPFAGREGKFVTSRNIKERLEKELLHNVALRVEPGDSPEKFKVSGRGELHLSVLIETMRREGFELAVGRPEVVIIEKDGEKQEPYENVTIDIEEQHQGSVMEQMGLRKGDLSNMIPDGKGRVRLEYTIPARGLIGFRNNFLTLTSGTGILTSTFSHYGPIKAGEVSNRQNGVLVSMATGTALTYSLETLQSRGKLFLGPGDEIYEGQLAGINSRDNDLVINPTKGKKLDNMRASGKDEVIALVPPIRFTLEQALEFIADDELVEVTPKSIRLRKKMLNENDRKRYERSKV
B2: AlgO (natural protein)
chain: STAVSVGSAQNSWDSLQPDREQVIASLNVVELLKRHHYNKPPLNDERSAKIYDSYLKMLDPARMYFTAGDIAEFDRWRNRFDDFLKSGDLDPGFVIYKRHLDRLKGRLDYALAMLDKGVDKIDFSVDESLLIDREKAPWAKDTAELDDLWRKKVKDEVLRLKITGKDDKAIQEQLTKRYKNQLSRLKQTRSEDIFQAYINAFAQSYDPHTQYLSPDNAENFDINMSLSLEGIGAVLQSDNDYVKVVRLVPAGPAAKSKQIATSDKIIGVAQGKGEMVDVVGWRLDEVVKLIRGPKGSQVRLEVIPASNAPNDQTSKIVAITREAVKLEDQAAKKSIIKVDHEGRSYKLGVIDLPAFYLDFKAYRAGDPNYKSTTRDVKKLVAELQKDKVDGIVLDLRNNGGGSLQEATELTGLFIDQGPTVLVRNSDGRVDVLNDDEGKAFYTGPLAVLVNRLSASASEIFAGAMQDYHRALILGGQTFGKGTVQTIQPLNHGELKLTLAKFYRVSGQSTQHQGVIPDISYPSIVDDKEIGESALPDSMPWDTIRPVVKDEANPFKPFLAQLKAQHDARTENNADFVYARERLALAQELMKEKTVSLNEAKRRAQQTSIENRQLAMENALRKSKGQEPLKELKREDENALPEEDDKTKPQDDAYLTESGHILLDYLNLNSAVAKH
notes: source: E. coli, purified (Ni-NTA or Strep-Tactin)
B3: PBP7 (enzyme, P. aeruginosa PAO1, UniProt P72161 24-310, looked up)
chain: SPPPKAGLPLQQELASGSALVTDQNTGKVLYSRNPDLVVPIASITKLMTAMVVLDSKLPLDEVLPIAISETSEMRGVFSRVRVGSQISRRDMLLLALMSSENRAAASLAQNYPGGKNAFVKAMNAKAHALGMKNTRYVEPTGLSLHNVSTARDLTRLLVASRQYPLLSQWSTTPEKTVAFRHPNYTLGFRNTNHLINNKTWNIQLTKTGFTNEAGHCLVMRTTINRSPVNLVVLDAFGKYTHFADATRLRRWLETGQVTAIPAAAKAYRLQRDRERGLGQPVAQAVR
B4: MltD (enzyme, P. aeruginosa PAO1, UniProt Q9I2T2 1-534, looked up)
chain: QGSGQIKGEAQAKAARPGARAVDVQFNPSWLHTQPGQNAAYNDIWDRMRDGFQLQDAISTNPRIERQRLWFLSNQSFLEQSSARGSLYMHYVVERLEERNMPLELALLPVIESAYNPFALSRSNAAGLWQFIPATGQHFNLRQTNFYDGRRDITASTNAALTYLERLHDMFNGDWMLALAAYNAGEGTVSRAIERNEKLGLPTDYWNLPLPQETQDYVPKLLALSQIVMAPDSYGISLNPINNEPYFQAVRVKRGIDLSSVAALANLDEDELYQLNPAYKRRVTMDGPQQLLVPMEKAAFLTASLDTLKPKEVTAWQQYRVRSGDSLHSIANRYRITVAELKSANRLSSNHLRKGQQLSIPGQIAGGAVKPVYQQLARQASTPARTRSYKVKNGDSLWQIARNNGVDVNDLKRWNGLDKHALKVGQTLKLQGGTQALAARKGNAAGKRDSATYYKVKQGDSMYLIAKRFNVEMKHLQRWNPRSKQALKPGQTLTLYLDTASR
B5: PilA (natural protein)
chain: PQYQNYVARSEGASALATINPLKTTVEESLSRGIAGSKIKIGTTASTATETYVGVEPDANKLGVIAVAIEDSGAGDITFTFQTGTSSPKNATKVITLNRTADGVWACKSTQDPMFTPKGCDN
notes: as for B2
B6: SltB2 (enzyme, P. aeruginosa PAO1, UniProt Q9I4G6 1-398, looked up)
chain: QPDASSFPSCLAGLQKKAQAQGISADSYERFTSGLQADLSVLDLLDAQPEFTTPLWDYLAGLVDEQRVSDGKAMLAQHDKLLDQVAARYGVDKYTVVAVWGVESDYGRIFGKRPLLTSLSTLSCYGRRQSFFQGEFLATLKLLQAGDIRDAGITGSWAGAFGHTQFMPSTYARIAVDFDGDGRRDLVGSVPDALGSTANYLKKAGWRTGQPWGYEVKVPADFPASLAGRGKRQPLSAWVARGVRRVDGQPLPGGDEKAAILLPAGAQGPAFLVYRNYDAIYSYNAAESYALAIALLSDRLRGGSGLVASWPTDDPGISRLERKQLQKALLARGYDIGEADGLIGTSTRKAIQAEQKRLGLTPADGRAGRKILEALKGAQP
B7: PBP4 (enzyme, P. aeruginosa PAO1, UniProt Q9HZG1 1-476, looked up)
chain: QVNATLPANVQKALQTNKLTGNDLSLVLIPLDGPGNPTYYNADVSVNPASTMKLFTTYAALEMLGPTYQWKTEFYTDGQLKNGVLNGNLYLKGGGDPKLNMEKLWLLMRDLRANGVTKVTGDLVLDRSYFNIPQLPVFNDDGGDDTKPFLVGPDSLLVNLKSVRMVVRTDGNKVNVQMDPPLANVRIDNQVKMTAPATCPAWPKLRFSPVTQFDGTTLLATGQIPQGCSAQTYMSLLDHPGYTAGAVRGIWQELGGSILGKDRQGSVPRNATLIAKAFSPDLVEIIRDINKYSNNTMARQLFLSIGAQFRNSADGDDAQAAQRVVRQWLARKGITAPRLVMENGSGLSRQERVSAREMAAMLQAAWHSPYAAEYISSLPLAGLDGTMRKRLRRTALVGEAHVKTGTLNTVRALAGFSRDASGHNWVVVAILNSPRPWGASAILDQVLLSLHARK
B8: MltA (enzyme, P. aeruginosa PAO1, UniProt Q9I4B6 1-385, looked up)
chain: DDGKKEPPPKPAEVTTYNSVPWDALPATSDADLLAGFNAWRSACARLAKDPVWGEPCASATTVAADPTAVRAFLQERMQVYSLRSSSNGDQGLITGYYEPVYHGSLSQGEKTPVPVYGVPDDLVVVALESVYPELKGKRLRGRLEGRVLKPYDDAATIRDNGSSAPVLAWLGDPMDLQFLQIQGSGRIQLEDGRQLRIGYGDQNGHPYKPVGRWLVEQGLVPKEEISMKRIRDWAEANPQRVSELLASNPSFVFFSLRPDSDEGPRGSLNVPLTDGYSVAIDRKVIPLGSLMWLSTTRPDDGSAVVRPVAAQDTGGAIVGEVRADLFWGTGDAAGELAGHMKQPGRLWLLWPKGAPLPAS
B9: LptE (natural protein)
chain: not shown
B10: SltB1 (enzyme, P. aeruginosa PAO1, UniProt Q9HX24 1-340, looked up)
chain: GDYDGSPQVAEFVSEMTRDYGFAGEQLMGLFRDVNRKQSILDAISRPAERVKQWKEYRPIFISDARISRGVDFWNKHAEDLARAEKEYGVPAEIIVSIIGVETFFGRNTGSYRVMDALSTLGFDYPPRADFFRKELREFLLLAREQQVDPLSLTGSYAGAMGLPQFMPSSFRAYAVDFDGDGHINIWSDPTDAIGSVASYFKQHGWVTGEPVVSVAEINDESAESAVTRGVDPTMSLGELRARGWRTHDALRDDQKVTAMRFVGDKGIEYWVGLPNFYVITRYNRSAMYAMAVYQLAGEIARARGAH
B11: MltF (enzyme, P. aeruginosa PAO1, UniProt Q9HXN1 33-490, looked up)
chain: PTALERVQKEGVLRVITRNSPATYFQDRNGETGFEYELAKRFAERLGVELKIETADNLDDLYAQLSREGGPALAAAGLTPGREDDASVRYSHTYLDVTPQIIYRNGQQRPTRPEDLVGKRIMVLKGSSHAEQLAELKKQYPELKYEESDAVEVVDLLRMVDVGDIDLTLVDSNELAMNQVYFPNVRVAFDFGEARGLAWALPGGDDDSLMNEVNAFLDQAKKEGLLQRLKDRYYGHVDVLGYVGAYTFAQHLQQRLPRYESHFKQSGKQLDTDWRLLAAIGYQESLWQPGATSKTGVRGLMMLTNRTAQAMGVSNRLDPKQSIQGGSKYFVQIRSELPESIKEPDRSWFALAAYNIGGAHLEDARKMAEKEGLNPNKWLDVKKMLPRLAQKQWYAKTRYGYARGGETVHFVQNVRRYYDILTWVTQPQMEGSQIAESGLHLPGVNKTRPEEDSGDEKL
B12: MltB (enzyme, P. aeruginosa PAO1, UniProt Q9HVX3 1-367, looked up)
chain: SSEPTPPPKPAAKPQARTVISPRPVRQSVQPILPLRGDYANNPAAQHFIDRMVSQHGFNRQQLHDLFAQTQRLDWVIRLMDRQAPTYTPPSGPNGAWLRYRKKFVTPGNVQNGVLFWDQYETDLQRASRVYGVPPEIIVGIIGVETRWGRVMGKTRIIDALSTLSFSYPRRAEFFSGELEQFLLQARKEGTDPLALRGSYAGAMGYGQFMPSSFTKYAVDFDGDGHIDLWNPRDAIGSVANYFKQHGWVSGDRVAVPASGRAPSLEDGFKTLYPLDVLASAGLRPQGPLGGHRQASLLRLDMGRNYQYWYGLPNFYVITRYNHSTHYAMAVWELGKEVDRVRHRSVVRQD

Key:
Settings in all cases: both partners purified
[1] = target: T1, RlpA-Δ32·MltF2 complex (MST); assay: MST
[2] = target: T2, RlpA-Δ32; assay: SPR
[3] = target: T3, RlpA-Δ32, fluorescently labeled; assay: MST

| Binder | Kd [1] | kon [2] | Kd [3] | Kd [2] | koff [2] |
| --- | --- | --- | --- | --- | --- |
| B1 | 1800 nM |  |  |  |  |
| B2 | 16000 nM |  |  |  |  |
| B3 |  | 5900 M⁻¹ s⁻¹ | 430 nM |  |  |
| B4 | 220 nM |  |  |  |  |
| B5 | 309 nM | 1100 M⁻¹ s⁻¹ | 240 nM | 1980 nM | 0.00218 s⁻¹ |
| B6 | 150 nM |  |  |  |  |
| B7 | 240 nM |  |  |  |  |
| B8 | 35 nM |  |  |  |  |
| B9 | 150 nM |  | 77 nM |  |  |
| B10 | 95 nM | 330 M⁻¹ s⁻¹ | 140 nM | 3850 nM | 0.00127 s⁻¹ |
| B11 | 260 nM |  |  |  |  |
| B12 | 110 nM |  |  |  |  |
